Measurements reported in US9023987B2, “Cell-permeable peptide” (Seoul National University R&DB Foundation, priority 2010, dated 2015).

What was measured:
[1] = target: T1, human-derived Smurf1 protein (Homo sapiens, UniProt Q9HCE7); experiment: Slot-blot assay of binding to Smurf1
T1 construct: purchased Origene Technologies (Rockville, Md., USA)
From the text: In order to confirm presence or absence of the active site of the cell permeable peptide-bone differentiation inducing sequence conjugate synthesized by the method in Example 1 for binding to Smurf1 and binding degrees according to the concentration, a slot blot assay were used. This experimental method is a molecular biological method of positioning a protein on a membrane and sucking the protein in the other side to strongly attach the protein on a surface of the membrane, directly positioning a material to be confirm an interaction with the attached protein and culturing for a predetermine time to induce the binding, and blotting them using antibodies to confirm the interaction (affinity) between the protein and the material through a difference of each Dot.
1 μg of human-derived Smurf1 protein was input […] per well using a slot blot device (Hoefer, Pharmacia Biotech, USA) and blotted on a predetermined position on a nitrocellulose membrane (2 μm, Pall, USA) in a vacuum state. After blotting, the nitrocellulose membrane was blocked with phosphate buffer solution containing 0.5% Tween® 20 at room temperature for 30 minutes, and then completely dried. […]

[2] = test system: human mesenchymal stem cells (hMSC); experiment: Cell differentiation ability by alkaline phosphatase (ALP) staining; assay type: cell-based; set-up: dose or concentration left out as unconfirmed; conditions: hard tissue-forming medium, 14 days, compared with PBS; FIG. 4A d-f
Method: In order to detect alkaline phosphate (ALP), which is a label material shown at the initial stage of bone differentiation, for cell differentiation ability of the cell permeable peptide-bone differentiation inducing sequence conjugate, human mesenchymal stem cells (hMSC) were seeded in a 24-well plate at 1×10^3/well, and then treated with the cell permeable peptide-bone differentiation inducing sequence conjugate synthesized from Example 1 and the bone differentiation inducing sequence of Comparative Example 2 of […] for each, and then incubated in a hard tissue forming medium for 14 days. The hard tissue-forming medium contained an MSCBM medium containing 15% FBS (fetal bovine serum), […] of L-ascorbic acid, 10^−7 M dexamethasone, 1% antibiotic-antimycotic solution, and 10 mM beta-glycerol phosphate. After completion of the incubation, the medium was removed, and then the cells were washed with phosphate buffer solution (PBS) twice. The cells were fixed with 10% NBF at room temperature for 20 minutes, and then washed with a phosphate buffer solution (PBS) twice. Then, staining was conducted using the Alkaline phosphatase detection kit (Millipore, USA) by the experiment method recommended by the manufacture.

[3] = test system: human mesenchymal stem cells (hMSC); experiment: Cell differentiation ability by calcein staining; assay type: cell-based; set-up: dose or concentration left out as unconfirmed; conditions: hard tissue-forming medium with calcein, 14 days, compared with PBS; FIG. 4A g-i
Method: In order to confirm cell differentiation ability of the cell permeable peptide-bone differentiation inducing sequence conjugate, human mesenchymal stem cells (hMSC) were seeded in each well of a 4-well chamber slide at 5×10^3/well, and then incubated in a general medium for 20 hours (overnight) for cell stabilization. The cells were treated with the cell permeable peptide-bone differentiation inducing sequence conjugate synthesized from Example 1 and the bone differentiation inducing sequence of Comparative Example 2 of […] for each, and then incubated in a hard tissue forming medium containing calcein (calcium staining, green) for 14 days. The composition of the hard tissue-forming medium consisted of an MSCBM medium containing 15% FBS (fetal bovine serum), […] of L-ascorbic acid, 10^−7 M dexamethasone, 1% antibiotic-antimycotic solution, and 10 mM beta-glycerol phosphate. After completion of the incubation, the medium was removed, and then the cells were washed with phosphate buffer solution (PBS) twice. The cells washed with the phosphate buffer solution were fixed with 10% NBF (neutral buffered formalin), and then the nucleus was stained (Hoechst 33342, blue). […]

[4] = test system: human mesenchymal stem cells (hMSC); experiment: Cytotoxicity / cell proliferation by quantitative BrdU assay; assay type: cell-based; set-up: dose or concentration left out as unconfirmed; conditions: 24, 48, and 72 hours, FIG. 6
Method: In order to confirm whether or not cell proliferation is affected by potential toxicity when the cell permeable peptide-bone differentiation inducing sequence conjugate and control domains are cultured with hMSC, a degree of cell proliferation was analysis by ELISA using BrdU. Since BrdU was introduced in chromosome instead of deoxy thymidine triphosphate (dTTP) at the time of DNA replication during a proliferation process of hMSC, a degree of introduction of BrdU may reflect a degree of proliferation of hMSC.
First, After 1×10^3 human Mesenchymal Stem cells (hMSC) were plated into each well of 96-well plate, the degree of introduction of BrdU, that is, the degree of proliferation of hMSC was measured using a cell proliferation ELISA kit (BrdU (colorimetry); Boehringermanheim, Germany). Simply describing this method, the cells were treated with the cell permeable peptide-bone differentiation inducing sequence conjugate synthesized by the method in Example 1 and the domains of Example 2 at a concentration of […] and cultured in medium for forming hard tissue for 24, 48, and 72 hours. […] of BrdU (5-bromo-2′-deoxyuridine) was added to each of the groups before 24 hours of each culture time and further cultured for 24 hours. […] The reaction was terminated by 1N H2SO4, and then absorbance was measured using the ELISA reader (Bio-Tek, USA) at 450 nm.

T1 sequence (Q9HCE7 whole entry): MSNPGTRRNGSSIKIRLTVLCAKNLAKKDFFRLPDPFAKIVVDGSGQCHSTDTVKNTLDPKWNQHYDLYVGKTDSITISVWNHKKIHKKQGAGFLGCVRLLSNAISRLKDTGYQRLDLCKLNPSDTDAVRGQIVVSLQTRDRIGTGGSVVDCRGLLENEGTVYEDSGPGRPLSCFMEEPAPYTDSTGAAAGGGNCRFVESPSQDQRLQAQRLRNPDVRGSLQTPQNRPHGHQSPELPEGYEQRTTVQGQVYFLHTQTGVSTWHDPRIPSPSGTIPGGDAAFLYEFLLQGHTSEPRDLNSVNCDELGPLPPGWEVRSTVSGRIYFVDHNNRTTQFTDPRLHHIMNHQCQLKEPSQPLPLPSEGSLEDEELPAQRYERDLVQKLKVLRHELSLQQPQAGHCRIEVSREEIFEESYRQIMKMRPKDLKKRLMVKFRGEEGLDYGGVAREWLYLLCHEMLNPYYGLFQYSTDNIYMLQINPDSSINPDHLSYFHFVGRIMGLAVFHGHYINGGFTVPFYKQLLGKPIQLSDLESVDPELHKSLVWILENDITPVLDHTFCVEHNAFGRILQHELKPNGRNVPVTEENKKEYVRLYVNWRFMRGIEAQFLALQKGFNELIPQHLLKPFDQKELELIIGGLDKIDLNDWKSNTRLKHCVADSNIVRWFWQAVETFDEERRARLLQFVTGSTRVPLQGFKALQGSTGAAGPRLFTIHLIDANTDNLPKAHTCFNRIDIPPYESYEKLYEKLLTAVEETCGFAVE

With “NH2-GAPPPADSAP-SSRKKNPNCRRH-C-COONH2 (H-GAPPPADSAPSSRKKNPNCRRHC-NH2; cysteine pairing not given here) [Example 1]” the “concentration at which an increase of dot size began” value ([1]; 0.1, 1, 10, and 100 mM, 4° C., 20 hours, FIG. 2D) was 10 mM, the “binding to Smurf1 protein detected as dot” value ([1]; biotinylated domains, slot blot, FIG. 2C) was “a dot was confirmed” and the “differentiation into osteoblast, alkaline phosphatase staining” value [2] was “relatively strong staining degree of alkaline phosphatase”. The “calcein staining degree of phosphorylated calcium” value [3] was “relatively strong staining degree of phosphorylated calcium” and the “effect on cell proliferation (BrdU, DNA synthesis ability compared with PBS)” value [4] was “did not affect the cell proliferation”.
